Sequences and labels used below:
B1: GLS3000 V94I one-arm antibody (antibody, human IgG1, kappa, L234A L235A, N297A, name in Kabat numbering)
heavy: QVQLVESGGGVVQPGRSLRLSCAASGFTFSNAWMHWVRQAPGKGLEWVAQIKAKSNNYATYYAESVKGRFTISRDDSKNSLYLQMNSLKTEDTAVYYCRYVHYGAYYGVDAWGQGTTVTVSSASTKGPSVFPLAPSSKSTSGGTAALGCLVKDYFPEPVTVSWNSGALTSGVHTFPAVLQSSGLYSLSSVVTVPSSSLGTQTYICNVNHKPSNTKVDKKVEPKSCDKTHTCPPCPAPEAAGGPSVFLFPPKPKDTLMISRTPEVTCVVVDVSHEDPEVKFNWYVDGVEVHNAKTKPREEQYASTYRVVSVLTVLHQDWLNGKEYKCKVSNKALPAPIEKTISKAKGQPREPQVYTLPPSRCELTKNQVSLSCAVKGFYPSDIAVEWESNGQPENNYKTTPPVLDSDGSFFLVSKLTVDKSRWQQGNVFSCSVMHEALHNHYTQKSLSLSPDYKDDDDK
chain: EPKSSDKTHTCPPCPAPELLGGPSVFLFPPKPKDTLMISRTPEVTCVVVDVSHEDPEVKFNWYVDGVEVHNAKTKPREEQYNSTYRVVSVLTVLHQDWLNGKEYKCKVSNKALPAPIEKTISKAKGQPREPQVCTLPPSRDELTKNQVSLWCLVKGFYPSDIAVEWESNGQPENNYKTTPPVLDSDGSFFLYSKLTVDKSRWQQGNVFSCSVMHEALHNRYTQKSLSLSP
light: DIVMTQSPLSLPVTPGEPASISCRSSQSLVHSNRNTYLHWYQQKPGQAPRLLIYKVSNRFSGVPDRFSGSGSGTDFTLKISRVEAEDVGVYYCGQGTQIPYTFGQGTKLEIKRTVAAPSVFIFPPSDEQLKSGTASVVCLLNNFYPREAKVQWKVDNALQSGNSQESVTEQDSKDSTYSLSSTLTLSKADYEKHKVYACEVTHQGLSSPVTKSFNRGEC
B2: GLS3000 V94K one-arm antibody (antibody, human IgG1, kappa, L234A L235A, N297A, name in Kabat numbering)
heavy: QVQLVESGGGVVQPGRSLRLSCAASGFTFSNAWMHWVRQAPGKGLEWVAQIKAKSNNYATYYAESVKGRFTISRDDSKNSLYLQMNSLKTEDTAVYYCRYVHYGAYYGVDAWGQGTTVTVSSASTKGPSVFPLAPSSKSTSGGTAALGCLVKDYFPEPVTVSWNSGALTSGVHTFPAVLQSSGLYSLSSVVTVPSSSLGTQTYICNVNHKPSNTKVDKKVEPKSCDKTHTCPPCPAPEAAGGPSVFLFPPKPKDTLMISRTPEVTCVVVDVSHEDPEVKFNWYVDGVEVHNAKTKPREEQYASTYRVVSVLTVLHQDWLNGKEYKCKVSNKALPAPIEKTISKAKGQPREPQVYTLPPSRCELTKNQVSLSCAVKGFYPSDIAVEWESNGQPENNYKTTPPVLDSDGSFFLVSKLTVDKSRWQQGNVFSCSVMHEALHNHYTQKSLSLSPDYKDDDDK
chain: EPKSSDKTHTCPPCPAPELLGGPSVFLFPPKPKDTLMISRTPEVTCVVVDVSHEDPEVKFNWYVDGVEVHNAKTKPREEQYNSTYRVVSVLTVLHQDWLNGKEYKCKVSNKALPAPIEKTISKAKGQPREPQVCTLPPSRDELTKNQVSLWCLVKGFYPSDIAVEWESNGQPENNYKTTPPVLDSDGSFFLYSKLTVDKSRWQQGNVFSCSVMHEALHNRYTQKSLSLSP
light: DIVMTQSPLSLPVTPGEPASISCRSSQSLVHSNRNTYLHWYQQKPGQAPRLLIYKVSNRFSGVPDRFSGSGSGTDFTLKISRVEAEDVGVYYCGQGTQKPYTFGQGTKLEIKRTVAAPSVFIFPPSDEQLKSGTASVVCLLNNFYPREAKVQWKVDNALQSGNSQESVTEQDSKDSTYSLSSTLTLSKADYEKHKVYACEVTHQGLSSPVTKSFNRGEC
B3: GLS3000 V94M one-arm antibody (antibody, human IgG1, kappa, L234A L235A, N297A, name in Kabat numbering)
heavy: QVQLVESGGGVVQPGRSLRLSCAASGFTFSNAWMHWVRQAPGKGLEWVAQIKAKSNNYATYYAESVKGRFTISRDDSKNSLYLQMNSLKTEDTAVYYCRYVHYGAYYGVDAWGQGTTVTVSSASTKGPSVFPLAPSSKSTSGGTAALGCLVKDYFPEPVTVSWNSGALTSGVHTFPAVLQSSGLYSLSSVVTVPSSSLGTQTYICNVNHKPSNTKVDKKVEPKSCDKTHTCPPCPAPEAAGGPSVFLFPPKPKDTLMISRTPEVTCVVVDVSHEDPEVKFNWYVDGVEVHNAKTKPREEQYASTYRVVSVLTVLHQDWLNGKEYKCKVSNKALPAPIEKTISKAKGQPREPQVYTLPPSRCELTKNQVSLSCAVKGFYPSDIAVEWESNGQPENNYKTTPPVLDSDGSFFLVSKLTVDKSRWQQGNVFSCSVMHEALHNHYTQKSLSLSPDYKDDDDK
chain: EPKSSDKTHTCPPCPAPELLGGPSVFLFPPKPKDTLMISRTPEVTCVVVDVSHEDPEVKFNWYVDGVEVHNAKTKPREEQYNSTYRVVSVLTVLHQDWLNGKEYKCKVSNKALPAPIEKTISKAKGQPREPQVCTLPPSRDELTKNQVSLWCLVKGFYPSDIAVEWESNGQPENNYKTTPPVLDSDGSFFLYSKLTVDKSRWQQGNVFSCSVMHEALHNRYTQKSLSLSP
light: DIVMTQSPLSLPVTPGEPASISCRSSQSLVHSNRNTYLHWYQQKPGQAPRLLIYKVSNRFSGVPDRFSGSGSGTDFTLKISRVEAEDVGVYYCGQGTQMPYTFGQGTKLEIKRTVAAPSVFIFPPSDEQLKSGTASVVCLLNNFYPREAKVQWKVDNALQSGNSQESVTEQDSKDSTYSLSSTLTLSKADYEKHKVYACEVTHQGLSSPVTKSFNRGEC
B4: GLS3000 V94L one-arm antibody (antibody, human IgG1, kappa, L234A L235A, N297A, name in Kabat numbering)
heavy: QVQLVESGGGVVQPGRSLRLSCAASGFTFSNAWMHWVRQAPGKGLEWVAQIKAKSNNYATYYAESVKGRFTISRDDSKNSLYLQMNSLKTEDTAVYYCRYVHYGAYYGVDAWGQGTTVTVSSASTKGPSVFPLAPSSKSTSGGTAALGCLVKDYFPEPVTVSWNSGALTSGVHTFPAVLQSSGLYSLSSVVTVPSSSLGTQTYICNVNHKPSNTKVDKKVEPKSCDKTHTCPPCPAPEAAGGPSVFLFPPKPKDTLMISRTPEVTCVVVDVSHEDPEVKFNWYVDGVEVHNAKTKPREEQYASTYRVVSVLTVLHQDWLNGKEYKCKVSNKALPAPIEKTISKAKGQPREPQVYTLPPSRCELTKNQVSLSCAVKGFYPSDIAVEWESNGQPENNYKTTPPVLDSDGSFFLVSKLTVDKSRWQQGNVFSCSVMHEALHNHYTQKSLSLSPDYKDDDDK
chain: EPKSSDKTHTCPPCPAPELLGGPSVFLFPPKPKDTLMISRTPEVTCVVVDVSHEDPEVKFNWYVDGVEVHNAKTKPREEQYNSTYRVVSVLTVLHQDWLNGKEYKCKVSNKALPAPIEKTISKAKGQPREPQVCTLPPSRDELTKNQVSLWCLVKGFYPSDIAVEWESNGQPENNYKTTPPVLDSDGSFFLYSKLTVDKSRWQQGNVFSCSVMHEALHNRYTQKSLSLSP
light: DIVMTQSPLSLPVTPGEPASISCRSSQSLVHSNRNTYLHWYQQKPGQAPRLLIYKVSNRFSGVPDRFSGSGSGTDFTLKISRVEAEDVGVYYCGQGTQLPYTFGQGTKLEIKRTVAAPSVFIFPPSDEQLKSGTASVVCLLNNFYPREAKVQWKVDNALQSGNSQESVTEQDSKDSTYSLSSTLTLSKADYEKHKVYACEVTHQGLSSPVTKSFNRGEC
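Note: Light-chain single-residue variant antibodies injected over amine-coupled CD3ε homodimer on a CM4 chip at 25 °C, bound amount divided by that of the GLS3000-containing antibody.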

The assay deals with T1, CD3ε homodimer protein (human, UniProt P07766 23-126, limits assumed).
T1 construct: also called CD3 (CD3ε)
T1 sequence (P07766 23-126 limits assumed): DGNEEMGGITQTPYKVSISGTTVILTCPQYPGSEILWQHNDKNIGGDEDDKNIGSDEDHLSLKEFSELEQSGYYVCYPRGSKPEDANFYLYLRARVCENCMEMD
The assay is described as follows: SPR Biacore T200, CD3ε homodimer on chip. (In general: In SPR one partner is held on a chip, and binding of the other changes the refractive index at the surface.)
With B1, the “ratio of amount bound vs unaltered GLS3000” value was found to be 0.66.
The result for B2 reads 0.57; that for B3, 0.44; that for B4, 0.44.

Values taken from US20260049138A1 (Chugai, published 2026).
